Measurements published in patent US20070160601A1 (published 2007).
Square brackets hold non-standard residues; d marks the D form. cellulose membrane = cellulose membrane solid support, attached through a beta-alanine spacer; sY = N[C@@H](Cc1ccc(OS(=O)(=O)O)cc1)C(=O)O; βAla = NCCC(=O)O

T1: fully sulfated and glycosylated human PSGL-1 19.ek.Fc fusion protein (human, not fully specified; sulfated tyrosines (y in QATEyEyLDyDFLPETEPPRPMMDDDDK, corresponding to Tyr46, Tyr48 and Tyr51); SLe^x-capped O-glycan; biotinylated in the assays)
T1 construct: also called PSGL-19.ek.Fc; biotinylated PSGL-1 19.ek.Fc
T1 chain: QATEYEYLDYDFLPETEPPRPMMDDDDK

T2: human PSGL-1 on cells (human, UniProt Q14242 42-412)
T2 construct: whole, on cells; One molecule is used for HL-60 cells, recombinant CHO cells and blood cells; The cell type is named in each entry; also called native PSGL-1 expressed on HL-60 cells; recombinant CHO cells expressing human PSGL-1
T2 sequence (looked up): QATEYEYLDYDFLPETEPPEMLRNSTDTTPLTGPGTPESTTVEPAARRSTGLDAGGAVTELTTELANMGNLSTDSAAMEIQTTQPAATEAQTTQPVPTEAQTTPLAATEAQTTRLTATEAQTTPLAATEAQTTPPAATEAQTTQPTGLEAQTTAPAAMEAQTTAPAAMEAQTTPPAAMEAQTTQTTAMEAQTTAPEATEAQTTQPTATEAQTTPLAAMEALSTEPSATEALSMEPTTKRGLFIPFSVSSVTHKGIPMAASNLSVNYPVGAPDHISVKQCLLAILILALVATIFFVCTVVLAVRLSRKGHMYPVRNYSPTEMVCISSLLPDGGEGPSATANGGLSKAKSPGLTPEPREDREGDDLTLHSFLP

T3: peptide EYEYLDyDF (SEQ ID NO:45) (human)
T3 construct: Spot 55 of the peptide array; also called peptide 55
T3 peptide: Ac-EYEYLD[sY]DF-{βAla-cellulose membrane}

B1: PSG3 full-length bivalent antibody (human IgG4, lambda) (antibody, V domains shown)
VH: QVQLVQSGAEVKKPGSSVRVSCKASGGSFSSYGIHWVQQAPGQGLEWMGRIIPVLRIRNYAQKFHDRVTIDADTSTGTAYMELSSLTSDDTAVYYCAGSRQGVAPTGYWGQGTMVTVSS
VL: QAVLTQPSSLSASPGASASLTCNLRSGIDVGTYRIYWYQQKPGSPPQYLLRYKSDSDKQQGSGVPSRFSGTKDASANAGILLISGLQSEDEADYYCMIWHSNGWVFGGGTKLTVLG
notes: also called full length PSG3; human monoclonal antibody PSG3
B2: PSG3 scFv (scFv)
scFv: QVQLVQSGAEVKKPGSSVRVSCKASGGSFSSYGIHWVQQAPGQGLEWMGRIIPVLRIRNYAQKFHDRVTIDADTSTGTAYMELSSLTSDDTAVYYCAGSRQGVAPTGYWGQGTMVTVSSGGGGSGGGGSGGGGSAQAVLTQPSSLSASPGASASLTCNLRSGIDVGTYRIYWYQQKPGSPPQYLLRYKSDSDKQQGSGVPSRFSGTKDASANAGILLISGLQSEDEADYYCMIWHSNGWVFGGGTKLTVLGAAAHHHHHH
notes: Human scFv from a phage display library, purified from E. coli periplasm on NiNTA and detected with anti-Myc; also called scFv PSG3
B3: PSG6 full-length bivalent antibody (human IgG4, lambda) (antibody, V domains shown)
VH: EVQLLESGGGLVRPGGSLRLSCAASGFTFSSYAMSWVRQAPGKGLEWVSAISGSGGSTYYADSVKGRFTISRDNSKNTLYLQMNSLRAEDTAVYYCARDKRLTYWGQGTMVTVSS
VL: QSVVTQPPSVSAAPGQKVTISCSGSSSNIGNNYVSWYQQLPGTAPKLLIYDNNKRPSGIPDRFSGSKSGTSATLGITGLQTGDEADYYCGTWDSSLSARVFGGGTKVTVLG
notes: also called human monoclonal antibody PSG6
B4: PSG6 scFv (scFv)
scFv: EVQLLESGGGLVRPGGSLRLSCAASGFTFSSYAMSWVRQAPGKGLEWVSAISGSGGSTYYADSVKGRFTISRDNSKNTLYLQMNSLRAEDTAVYYCARDKRLTYWGQGTMVTVSSGGGGSGGGGSGGGGSAQSVVTQPPSVSAAPGQKVTISCSGSSSNIGNNYVSWYQQLPGTAPKLLIYDNNKRPSGIPDRFSGSKSGTSATLGITGLQTGDEADYYCGTWDSSLSARVFGGGTKVTVLGAAAHHHHHH
notes: Human scFv from a phage display library, purified on NiNTA and detected with anti-Myc; also called scFv PSG6

Columns and labels:
[1] = molecular target: T1, fully sulfated and glycosylated human …; experiment: BIAcore 2000, biotinylated PSGL-1 19.ek.Fc on streptavidin chip, antibody injected at 0-100 nM
Experimental: Surface plasmon resonance binding analysis. A BIAcore 2000 instrument (BIAcore AB, Uppsala, Sweden) was used to analyze the interactions between the identified antibodies and biotinylated PSGL-1 19.ek.Fc or derived peptides. Binding experiments were performed at 25° C. using streptavidin-coated sensor chips (BIAcore) and HBS-P buffer (20 mM HEPES [pH 7.4], 150 mM NaCl and 0.005% polysorbate 20 v/v) adjusted to 1 mM for both CaCl₂ and MgCl₂. The streptavidin on the sensor surfaces were condition with three one-minute injections of a solution containing 1 M NaCl and 25 mM NaOH. The chips were regenerated with 5 μL of 0.1% TFA and equilibrated with running buffer. […] Binding kinetics were analyzed using BIAevaluation software (V2.1; Pharmacia Biosensor, Uppsala, Sweden). The response representing the mass of bound monoclonal antibodies was measured in resonance units (RU). […] Binding kinetics of human anti-PSGL-1 monoclonal antibodies to the immobilized PSGL-1 19.ek.Fc was determined under partial mass transport limitations by triplicate injections at a concentration range (0-100 nM) onto the immobilized biotinlylated PSGL-1 19.ek peptide at a flow rate of 30 μL/min, following injection for two minutes. Dissociation was monitored for ten minutes at the same flow rate.

human PSGL-1 on cells [2] = molecular target: T2, human PSGL-1 on cells; experiment: FACS on recombinant CHO cells expressing human PSGL-1 (data not shown)
[3] = molecular target: T3, peptide EYEYLDyDF (SEQ ID NO:45); experiment: peptide spot array on cellulose membrane, HRP anti-Fc detection
From the text: Epitope mapping of PSG3. Fmoc-protected amino acids and cellulose membranes modified with polyethylene glycol were purchased from Intavis. Fmoc-protected β-alanine was purchased from Chem-Impex (Wood Dale, Ill.). The arrays were defined on the membranes by coupling a β-alanine spacer, followed by elongation of the peptide chain. Peptides were synthesized using standard DIC/HOBt coupling chemistry as described previously. (See, e.g., Molina et al., Pept. Res. 9:151-155 (1996) and Frank et al., Tetrahedron 48:9217-9232 (1992)). Activated amino acids were spotted using an Abimed ASP 222 robot. Washing and deprotection steps were done manually and the peptides were N-terminally acetylated after the final synthesis cycle.
Following peptide synthesis and side chain deprotection, the membranes were washed in methanol for 10 minutes and in blocker (1% casein in TBS) for 10 minutes. The membranes were then incubated with 1 μg/mL of […] in TBS for 1 hour with gentle shaking. The membranes were washed 4 times for 2 minutes in TBS and then probed with an HRP-conjugated anti-Fc antibody in blocker. After washing with TBS, bound protein was visualized using SuperSignal West reagent (Pierce) and a digital camera (AlphaInnotech FluorImager). Signal intensity reflects the amount of protein bound at each spot.

human PSGL-1 on cells [4] = molecular target: T2, human PSGL-1 on cells; experiment: FACS on HL-60 cells, scFv complexed with mouse anti-Myc, FITC secondary
Experimental: Characterization of the antibodies using FACS analysis. The binding specificity of the neutralizing antibodies was assessed by FACS analysis of HL-60 cells as well as in parent and recombinant CHO cells expressing human or rat PSGL-1 (data not shown). For FACS analysis, 0.5×10⁶ cells were incubated in 100 μL HBSS 2 mM CaCl₂, 1% fetal calf serum, NaN₃, containing 15 or 50 μg of the indicated scFvs complexed with 50 μg/ml mouse-anti-Myc-HRP (Roche Applied Sciences, Indianapolis, Ind.). The cells were washed and incubated with 1:100 anti-mouse FITC-conjugated secondary antibody (Roche Applied Sciences, Indianapolis, Ind.). Analysis was performed on viable cells of the mononuclear population with low forward and side scatter properties. As shown in FIG. 7(A) and FIG. 7(B), PSG3, PSG5, and PSG6 scFvs bind to native PSGL-1 expressed on HL-60 cells.

| Binder | Ka [1] [M⁻¹] | binding result (human PSGL-1 on cells [2]) | binding result [3] | binding result (human PSGL-1 on cells [4]) |
| --- | --- | --- | --- | --- |
| B1 | ~1.4e+09 | binds | binds | – |
| B2 | – | – | – | binds |
| B3 | ~6e+08 | binds | – | – |
| B4 | – | – | – | binds |
